The target in the assay is 原核表达的重组人P53蛋白 (recombinant human P53 expressed in E. coli BL21 from PET28a-P53, Ni-NTA purified) (human) (UniProt P04637). Put plainly: direct ELISA, purified antibody diluted 1:200 to 1:12800 on plates coated with purified P53 (10 μg/ml), goat anti-mouse IgG-HRP, OD450. For orientation: In an ELISA, binding on a coated surface is turned into a signal by an enzyme label.
Chain of UniProt P04637 (P04637 whole entry): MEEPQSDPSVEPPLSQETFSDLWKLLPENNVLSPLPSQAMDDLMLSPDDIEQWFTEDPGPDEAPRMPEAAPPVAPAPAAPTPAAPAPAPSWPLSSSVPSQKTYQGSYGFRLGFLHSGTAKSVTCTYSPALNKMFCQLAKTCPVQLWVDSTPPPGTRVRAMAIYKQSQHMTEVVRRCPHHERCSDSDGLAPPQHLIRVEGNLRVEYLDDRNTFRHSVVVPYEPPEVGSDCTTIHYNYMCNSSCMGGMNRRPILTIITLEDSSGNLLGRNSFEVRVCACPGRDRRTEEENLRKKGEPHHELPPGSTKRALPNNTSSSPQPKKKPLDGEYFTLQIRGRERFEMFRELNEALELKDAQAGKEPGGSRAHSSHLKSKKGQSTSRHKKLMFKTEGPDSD

B1: 小鼠抗人P53单克隆抗体6C4 (mouse anti-human P53 monoclonal antibody from hybridoma 6C4, CGMCC No. 6916) (antibody, part only; not given: light chain variable region, V domains shown, part only)
VH: DFCWSLSGVGVGCHLVTNSGKGLEWLAHIWWDDDKSYNPALKSRLTISKDTSTNQVFLKIASVDTADTATYYCARMTTATFAYWGQGTLVTVSPASTTPPISQ
For B1, the ELISA titer (滴度) (dilution factor (1:x)) was above 10000.

The values above are taken from patent CN106754739A.
